The source of these data is patent publication US20130142788A1 (published 2013).

* marks the point of attachment. Biotin = O=C1N[C@H]2[C@H](CS[C@H]2CCCCC(=O)*)N1

In assay [1] the target is T1, recombinant mature dimeric myostatin (human and mouse (mature sequences 100% …, UniProt O08689 268-376)).
T1 sequence: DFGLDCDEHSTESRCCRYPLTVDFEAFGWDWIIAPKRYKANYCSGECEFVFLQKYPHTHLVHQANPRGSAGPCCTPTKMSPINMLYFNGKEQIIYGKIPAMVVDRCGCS
As to the kind of experiment: cell-based or functional assay.

Assay [2] addresses T1, recombinant mature dimeric myostatin. As to the kind of experiment: Kinexa solution phase affinity. The method, then: Kinexa (Sapidyne Instruments) solution phase affinity was used to determine the overall affinity for a range of anti-myostatin molecules. Myostatin beads were prepared either by adsorption (polymethylmethacrylate beads-PMMA) or amine coupling (NHS-activated sepharose beads). The range of anti-myostatin molecules studied necessitated the generation of beads coated with different concentrations of myostatin. For the solution phase portion of the assay, a fixed concentration of antibody was incubated with a broad range of myostatin concentrations and allowed to reach equilibrium by incubation at r.t. for at least 2 h before analysis proceeded. The myostatin beads were then used to determine the amount of free antibody present in the solution phase samples, by means of the free antibody binding to the myostatin bead matrix then detected using an appropriate secondary antibody (either anti-human or anti-mouse depending on the construct being tested) labelled with a fluorescent dye. The binding curves where fitted using the Kinexa Pro analysis software inherent to the machine. Multiple runs using varying starting concentrations of antibody were then compiled and analysed using the n-curve analysis software to give a more accurate determination of affinity.

In assay [3] the target is T2, myostatin artificial peptide No 1 (…) (N-terminus H-; C-terminus -NH2).
T2 construct: also called Peptide 1
Briefly: SRU BIND biosensor, peptides captured on streptavidin plate. The method, then: (§1) Work was carried out on an SRU BIND reader (SRU Biosystems). A streptavidin biosensor plate was washed, a baseline reading taken, and biotinylated peptides captured onto the streptavidin coated biosensor plate. The plate was washed again, and a new baseline reading taken, antibody was then added and binding monitored.

In assay [4] the target is T3, myostatin artificial peptide No 7 (SGSGSRCCRYPLTVDFEA) (cysteine pairing not given here).
T3 construct: also called Peptide 7
T3 peptide: Biotin-SGSGSRCCRYPLTVDFEA-NH2
The description is as above. The method, then:
as §1

Assay [5] has as its target T4, myostatin artificial peptide No 9 (SGSGRYPLTVDFEAFGWD) (HELM PEPTIDE1{[O=C1N[C@H]2[C@H](CS[C@H]2CCCCC(=O)[*:2])N1].S.G.S.G.R.Y.P.L.T.V.D.F.E.A.F.G.W.D.[am]}$$$$V2.0; SMILES …).
T4 construct: also called Peptide 9
T4 peptide: SGSGRYPLTVDFEAFGWD
The description is as above. The method, then: as §1

Assay [6] addresses T5, myostatin artificial peptide No 15 (SGSGWDWIIAPKRYKANY) (HELM PEPTIDE1{[O=C1N[C@H]2[C@H](CS[C@H]2CCCCC(=O)[*:2])N1].S.G.S.G.W.D.W.I.I.A.P.K.R.Y.K.A.N.Y.[am]}$$$$V2.0; SMILES …).
T5 construct: also called Peptide 15
T5 peptide: SGSGWDWIIAPKRYKANY
The description is as above. The method, then:
as §1

Assay [7] addresses T6, myostatin artificial peptide No 27 (SGSGQKYPHTHLVHQANP) (HELM PEPTIDE1{[O=C1N[C@H]2[C@H](CS[C@H]2CCCCC(=O)[*:2])N1].S.G.S.G.Q.K.Y.P.H.T.H.L.V.H.Q.A.N.P.[am]}$$$$V2.0; SMILES …).
T6 construct: also called Peptide 27
T6 peptide: SGSGQKYPHTHLVHQANP
The assay is described as above. The method, then:
as §1

In assay [8] the target is T7, myostatin artificial peptide No 31 (SGSGVHQANPRGSAGPCC) (cysteine pairing not given here).
T7 construct: also called Peptide 31
T7 peptide: Biotin-SGSGVHQANPRGSAGPCC-NH2
The assay is described as above. The method, then: as §1

Assay [9] addresses T8, myostatin artificial peptide No 43 (SGSGLYFNGKEQIIYGKI) (HELM PEPTIDE1{[O=C1N[C@H]2[C@H](CS[C@H]2CCCCC(=O)[*:2])N1].S.G.S.G.L.Y.F.N.G.K.E.Q.I.I.Y.G.K.I.[am]}$$$$V2.0; SMILES …).
T8 construct: also called Peptide 43
T8 peptide: SGSGLYFNGKEQIIYGKI
Described as above. The method, then: as §1

Assay [10] deals with T1, recombinant mature dimeric myostatin. Briefly: BIAcore T100 SPR, antibody captured on anti-mouse IgG, myostatin analyte, all curves Bivalent model. The method, then:
The affinity of 10B3 mouse parental and 10B3C for recombinant myostatin was assessed by BIAcore™ (surface plasmon resonance) analysis. Analysis was carried out by the use of a capture surface: anti-mouse IgG was coupled to a C1 chip by primary amine coupling for 10B3 mouse parental; and a protein A surface was created on a C1 chip by primary amine coupling for 10B3 chimera.
After capture, recombinant myostatin was passed over the surface at 64 nM, 16 nM, 4 nM, 1 nM, 0.25 nM and 0.0625 nM, with a buffer injection (i.e. 0 nM) used for double referencing. There was a regeneration step between each analyte injection, after which the new antibody capture event occurred before the next injection of myostatin. The data was analysed using both the 1:1 model and the Bivalent model inherent to the T100 machines analysis software (see Table 6). Both capture surfaces could be regenerated using 100 mM phosphoric acid, the work was carried out using HBS-EP as the running buffer and using 25° C. as the analysis temperature.
In general terms: SPR reads the build-up and loss of mass on a sensor chip optically.

B1: mouse monoclonal antibody 10B3 (antibody, mouse IgG2a, V domains shown)
VH: EVQLQQSGPELVKPGASVKISCKASGYSFTGYFMHWVKQSHGNILDWIGNIYPYNGVSNYNQRFKAKATLTVDKSSSTAYMELRSLTSEDSAVYYCARRYYYGTGPADWYFDVWGTGTTVTVSS
VL: DIKMTQSPSSMYASLRERVTITCKASQDINSYLSWFQQKPGKSPKTLIYRANRLVDGVPSRFSGSGSGQDYSLTISSLEYEDMGIYYCLQCDEFPLTFGAGTKLELK
notes: Murine IgG2a/k; also called 10B3 mouse parental; parental 10B3
As to B1, the “IC50, myostatin responsive reporter gene neutralisation assay (A204)” value in [1] was 10 nM. Further, the Kd in assay [2] came out at 0.205 nM; in assay [10], 5.9 nM. For the same molecule, the binding result in assay [3], in assay [4], in assay [5], in [6], in [7] and in assay [8] was “no binding” throughout. For the same molecule, the binding result in assay [9] is on record as “no binding”.
